Values quoted from earlier work in PMC11533685.
pKd: −log10 of the molar value.

Columns and labels:
CD58 ECD (Homo sapiens) = CD58 ECD (Homo sapiens) (UniProt P19256); assay: SPR
CD200R ECD = CD200R ECD (UniProt Q8TD46); assay: SPR
Chain of UniProt Q8TD46 (Q8TD46 25-265): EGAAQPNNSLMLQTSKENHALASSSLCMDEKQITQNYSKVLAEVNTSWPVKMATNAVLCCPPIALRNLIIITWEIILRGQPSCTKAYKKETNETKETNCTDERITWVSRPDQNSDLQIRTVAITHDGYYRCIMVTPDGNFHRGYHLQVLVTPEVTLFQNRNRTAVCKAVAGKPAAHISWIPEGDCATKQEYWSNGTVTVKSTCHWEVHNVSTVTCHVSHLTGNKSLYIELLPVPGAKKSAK

Chain of UniProt P19256 (P19256 29-215): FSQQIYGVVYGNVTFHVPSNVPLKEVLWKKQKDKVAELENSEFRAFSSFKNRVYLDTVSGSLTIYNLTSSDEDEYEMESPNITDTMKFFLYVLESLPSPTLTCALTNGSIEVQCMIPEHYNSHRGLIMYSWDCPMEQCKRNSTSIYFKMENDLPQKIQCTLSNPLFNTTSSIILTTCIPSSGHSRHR

Row | Substance | pKd (CD58 ECD (Homo sapiens)) | pKd (CD200R ECD)
1 | CD2 ECD (from UniProt P06729) | 5.00 | –
2 | CD200 ECD (from UniProt P41217) | – | 6.00
